{
  "source": "paper PMC11626772",
  "biological_target": "N-terminally truncated type IV pilin from P. aeruginosa strain P1 (ΔP1) (Pseudomonas aeruginosa strain P1)",
  "assay": "SEC-MALS; 23 mg ml^-1 ΔP1 with trigger solution (10 mM Tris, 300 mM NaCl, 1 mM EDTA, 1 mM DTT, 1 M MPD pH 7.4) at 10:1 (v:v) protein:hydrophobe, 96 h at room temperature with nutation; then SEC-MALS as for the untreated sample; monomer to dimer",
  "data": [
    {"substance": "N-terminally truncated type IV pilin from P. aeruginosa strain P1 (ΔP1) (domain or fragment)", "values": [
      {"measurement": "mass fraction of the dimer", "value": 9.1, "unit": "%"},
      {"measurement": "stoichiometry N", "value": 2}
    ]}
  ]
}
